Patent publication US20230265151A1, “GIP/GLP1 CO-AGONIST COMPOUNDS” (priority 2020, published 2023)

T1: human GIP receptor (human) (UniProt P48546)
T1 sequence (looked up): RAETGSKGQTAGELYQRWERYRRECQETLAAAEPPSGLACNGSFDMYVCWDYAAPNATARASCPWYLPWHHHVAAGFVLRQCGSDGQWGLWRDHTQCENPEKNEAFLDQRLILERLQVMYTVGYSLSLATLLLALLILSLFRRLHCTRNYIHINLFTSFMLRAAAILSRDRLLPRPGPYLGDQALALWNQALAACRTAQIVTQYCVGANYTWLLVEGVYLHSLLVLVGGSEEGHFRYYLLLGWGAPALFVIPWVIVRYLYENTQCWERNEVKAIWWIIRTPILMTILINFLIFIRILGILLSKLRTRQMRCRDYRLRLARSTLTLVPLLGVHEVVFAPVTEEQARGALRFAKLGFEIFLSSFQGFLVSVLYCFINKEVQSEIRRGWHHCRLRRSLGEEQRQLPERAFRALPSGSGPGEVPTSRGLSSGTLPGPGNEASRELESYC

T2: human GIP receptor (human, UniProt P48546 22-466)
T2 sequence (looked up): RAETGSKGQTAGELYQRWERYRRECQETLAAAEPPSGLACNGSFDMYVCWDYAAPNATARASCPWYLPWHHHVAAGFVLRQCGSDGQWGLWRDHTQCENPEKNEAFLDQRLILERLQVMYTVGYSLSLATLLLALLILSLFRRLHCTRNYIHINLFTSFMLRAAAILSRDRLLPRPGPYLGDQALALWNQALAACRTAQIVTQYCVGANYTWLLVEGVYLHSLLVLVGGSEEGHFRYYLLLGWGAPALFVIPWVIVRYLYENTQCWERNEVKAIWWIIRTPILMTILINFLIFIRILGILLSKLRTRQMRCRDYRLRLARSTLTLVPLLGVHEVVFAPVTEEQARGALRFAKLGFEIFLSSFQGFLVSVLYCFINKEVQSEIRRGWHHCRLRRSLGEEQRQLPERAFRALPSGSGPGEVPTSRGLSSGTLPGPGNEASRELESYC


Experiments:
Test in all cases: cell-based or functional assay
[1] = target: human glucagon receptor (human) (UniProt P47871)
[2] = target: hGLP-1R (Homo sapiens, UniProt P43220)
[3] = target: T1, human GIP receptor (human)
[4] = target: T2, human GIP receptor
[5] = target: human GLP-1 receptor (human, UniProt P43220 24-463)

| Molecule | cAMP EC50 (1.0% HSA) [1] [nM] | cAMP EC50 (1.0% HSA) [2] [nM] | cAMP Emax (1.0% HSA) [2] [%] | cAMP EC50 (1.0% HSA) [3] [nM] | cAMP Emax (1.0% HSA) [3] [%] | cAMP EC50 [1] [nM] | cAMP EC50 [2] [nM] | cAMP Emax [2] [%] | cAMP EC50 [3] [nM] | cAMP Emax [3] [%] | cAMP EC50 (1.0% HSA) [4] [nM] | cAMP EC50 (1.0% HSA) [5] [nM] |
| --- | --- | --- | --- | --- | --- | --- | --- | --- | --- | --- | --- | --- |
| Y-Aib-EGT-αMeF(2F)-TSD-4Pal-SI-αMeL-LD-Orn-K((2-[2-(2-Amino-ethoxy)-ethoxy]-acetyl)2-(γ-Glu)-CO-(CH2)12-CO2H)AQ-Aib-EFI-(D-Glu)-αMeY-LIEGGK((2-[2-(2-Amino-ethoxy)-ethoxy]-acetyl)2-(γ-Glu)-CO-(CH2)12-CO2H)SSG-Orn-PPP-Orn-NH2 (peptide) | > 9950 | 34.6 | 102 | 1.25 | 96.5 |  |  |  |  |  |  |  |
| Y-Aib-EGT-αMeF(2F)-TSD-4Pal-SI-αMeL-LD-Orn-K((2-[2-(2-Amino-ethoxy)-ethoxy]-acetyl)2-(γ-Glu)-CO-(CH2)12-CO2H)AQ-Aib-EFI-(D-Glu)-αMeY-LIEGGK((2-[2-(2-Amino-ethoxy)-ethoxy]-acetyl)2-(γ-Glu)-CO-(CH2)12-CO2H)SSG-Orn-PPPS-NH2 (peptide) | > 9950 | 40.8 | 98.2 | 1.15 | 94.1 |  |  |  |  |  |  |  |
| Y-Aib-EGT-αMeF(2F)-TSD-4Pal-SI-αMeL-LD-Orn-K((2-[2-(2-Amino-ethoxy)-ethoxy]-acetyl)2-(γ-Glu)-CO-(CH2)12-CO2H)AQ-Aib-EFIK((2-[2-(2-Amino-ethoxy)-ethoxy]-acetyl)2-(γ-Glu)-CO-(CH2)12-CO2H)-αMeY-LIEG-Orn-NH2 (peptide) | > 9950 | 28.9 | 112 | 1.55 | 82.8 |  |  |  |  |  |  |  |
| Y-Aib-EGT-αMeF(2F)-TSD-4Pal-SI-αMeL-LD-Orn-K((2-[2-(2-Amino-ethoxy)-ethoxy]-acetyl)2-(γ-Glu)-CO-(CH2)12-CO2H)AQ-Aib-EFIK((2-[2-(2-Amino-ethoxy)-ethoxy]-acetyl)2-(γ-Glu)-CO-(CH2)12-CO2H)-αMeY-…-NH2 (peptide) | > 9950 | 19.1 | 106 | 1.37 | 89 |  |  |  |  |  |  |  |
| Y-Aib-EGT-αMeF(2F)-TSD-4Pal-SI-αMeL-LD-Orn-K((2-[2-(2-Amino-ethoxy)-ethoxy]-acetyl)2-(γ-Glu)-CO-(CH2)14-CH3)AQ-Aib-EFI-(D-Glu)K((2-[2-(2-Amino-ethoxy)-ethoxy]-acetyl)2-(γ-Glu)-CO-(CH2)14-CH3)…-NH2 (peptide) | > 9950 | 1.73 | 102 | 0.148 | 98.2 |  |  |  |  |  |  |  |
| Y-Aib-EGT-αMeF(2F)-TSD-4Pal-SI-αMeL-LD-Orn-K((2-[2-(2-Amino-ethoxy)-ethoxy]-acetyl)2-(εK)-CO-(CH2)12-CO2H)AQ-Aib-EFI-(D-Glu)-αMeY-LIEGGK((2-[2-(2-Amino-ethoxy)-ethoxy]-acetyl)2-(εK)-CO-(CH2)12-CO2H)-NH2 (peptide) | > 9950 | 11.3 | 103 | 0.335 | 86.2 |  |  |  |  |  |  |  |
| Y-Aib-EGT-αMeF(2F)-TSD-4Pal-SI-αMeL-LD-Orn-K((εK)-(γ-Glu)-CO-(CH2)12-CO2H)AQ-Aib-EFI-(D-Glu)-αMeY-LIEGGK((εK)-(γ-Glu)-CO-(CH2)12-CO2H)-NH2 (peptide) | > 9950 | 24.3 | 107 | 2.19 | 85.6 |  |  |  |  |  |  |  |
| Y-Aib-EGT-αMeF(2F)-TSD-4Pal-SI-αMeL-LD-Orn-K((εK)-(εK)-(γ-Glu)-CO-(CH2)12-CO2H)AQ-Aib-EFI-(D-Glu)-αMeY-LIEGGK((εK)-(εK)-(γ-Glu)-CO-(CH2)12-CO2H)-NH2 (peptide) | > 9950 | 18 | 109 | 0.939 | 79.3 |  |  |  |  |  |  |  |
| Y-Aib-EGT-αMeF(2F)-TSD-4Pal-αMeS-I-αMeL-LD-Orn-K((2-[2-(2-Amino-ethoxy)-ethoxy]-acetyl)2-(γ-Glu)-CO-(CH2)12-CO2H)AQ-Aib-EFIK((2-[2-(2-Amino-ethoxy)-ethoxy]-acetyl)2-(γ-Glu)-CO-(CH2)12-CO2H)-αMeY-…-NH2 (peptide) | > 9950 | 17.9 | 108 | 2.03 | 80.4 |  |  |  |  |  |  |  |
| YXEGTXTSDXXIXLDXKAQXEFIXXLIKGGPSSGAPPPS (Y-Aib-EGT-αMeF(2F)-TSD-4Pal-Aib-I-αMeL-LD-Orn-K((2-[2-(2-Amino-ethoxy)-ethoxy]-acetyl)2-(γ-Glu)-CO-(CH2)10-CH3)AQ-Aib-EFI-(D-Glu)-αMeY-LIK((2-[2-(2-Amino-ethoxy)-ethoxy]-acetyl)2-(γ-Glu)-CO-(CH2)10-CH3)GGPSSGAPPPS-NH2) [Example 334] |  |  |  |  |  | > 9950 | 0.131 | 104 | 0.00987 | 103 | 0.618 | 8.67 |
